Data from paper PMC10344781.
Values belong to the binder of their own block, whether it stands above or below them.

Target: T1, single-chain mouse Trp2/H2-K^b (scpMHC), biotinylated (mouse | not stated)
T1 chain 1: SVYDFFVWL
T1 chain 2: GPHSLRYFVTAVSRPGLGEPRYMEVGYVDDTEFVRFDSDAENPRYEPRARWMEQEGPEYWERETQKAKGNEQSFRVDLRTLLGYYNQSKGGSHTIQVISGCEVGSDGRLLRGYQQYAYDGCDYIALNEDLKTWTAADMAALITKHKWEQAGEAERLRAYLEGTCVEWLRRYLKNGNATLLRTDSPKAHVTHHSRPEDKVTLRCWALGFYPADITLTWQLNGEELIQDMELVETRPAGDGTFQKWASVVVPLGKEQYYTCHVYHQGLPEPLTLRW
T1 chain 3: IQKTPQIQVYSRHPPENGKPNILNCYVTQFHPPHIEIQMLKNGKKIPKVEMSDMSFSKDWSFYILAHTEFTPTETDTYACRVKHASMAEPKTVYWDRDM
Assay: SPR
Conditions: modification not given, biotin on the biotinylation tag (BirA)

- Kd: 2.5 nM
- koff: 0.00143 s⁻¹
B1: mIgG2a clone 13 (wild-type mIgG2a) (protein)
chain 1: EVLLQQSGPELVKPGASVKIPCKASGYTFTDYYMDWVKQSHGKSLEWIGLINPNNGGTVYNQKFKGKATLTVDKSSSAAYMEVRSLTSEDTAVYYCARKPYTGHPAWFAYWGQGTLVTVSA
chain 2: DIQVTQSSSSFSVSLGDRVTITCKASEDIYNRLAWYQQKPGNAPRLLISGATSLETGVPDRFSGSGSRKDYTLIITSLQTEDVATYYCQQYYAFPLTFGAGTKLELK

- Kd (scFv): 8.6 nM
- koff (scFv): 0.00121 s⁻¹
B2: purified scFv13 (Trp2/H2-K^b TCRm scFv clone 13) (protein)
chain 1: B1 chain 1
chain 2: B1 chain 2
